Measured values published in the supplement of paper PMC10724198.
± gives the standard deviation of the averaged measurements.

System: Saccharomyces cerevisiae
Assay: protein stability index of tFT-peptide fusion (C-terminal peptide) (PSI (0-1 scale)); higher = more stable (slower turnover)
Details: genetic background: wild type; temperature: 30 C
Method: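 Multiplexed protein stability (MPS) profiling in S. cerevisiae. Random 12-aa peptides (tFT-X12 library) are fused to the C-terminus of a sfGFP-mCherry tandem fluorescent timer, after mCherry and a GGGS linker. Cells are FACS-sorted into 8 mCherry/sfGFP bins and deep-sequenced. The protein stability index (PSI) is the read-weighted bin average, scaled from 0 (unstable) to 1 (stable). Only peptides with >10 reads are reported; cells were grown at 30 °C in SC-His with glucose.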
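Further: PSI is a weighted mean of sequencing reads over stability bins, variants kept only with over 10 reads, mCherry proximal and sfGFP distal, peptide attached via GGGS linker.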

Sequence | protein stability index
CDTIPNPLYKYD | 0.75 ± 0.055
CDYAWSSSASLG | 0.56 ± 0.017
CECANLIAHFCV | 0.6253 ± 0.0059
CECVGGFGFLGS | 0.682 ± 0.031
CEITISQEQSAS | 0.624 ± 0.022
CFGFRVFGFVFF | 0.561 ± 0.075
CFGGGVGWFPLG | 0.698 ± 0.0076
CFGSRDSSFGHT | 0.763 ± 0.13
CFLIFQRSWLFR | 0.576 ± 0.066
CFNGRVGGGGMR | 0.636 ± 0.086
CFPALSSRTFPS | 0.7521 ± 0.0047
CFPPVGPTSPTI | 0.745 ± 0.022
CFSFLEYCTSLP | 0.704 ± 0.012
CGEGVCVTGWSR | 0.68 ± 0.028
CGFGVSHASRIF | 0.78 ± 0.012
CGGAKLPEQCQK | 0.6813 ± 0.0022
CGLCDISFDLVM | 0.626 ± 0.027
CGLSAGIVLFFC | 0.58 ± 0.012
CGQEQGCEGAVD | 0.658 ± 0.12
CGRERIEGGGGD | 0.643 ± 0.1
CGRPPPLFAFIP | 0.701 ± 0.037
CGTPWHSITCSA | 0.55 ± 0.012
CGTYPTFCGLGV | 0.68 ± 0.068
CGVCRGSCGGYG | 0.583 ± 0.016
CGVCSAGIFVGG | 0.761 ± 0.026

Sequence | protein stability index
CGVFAGRVGVRV | 0.6003 ± 0.0017
CGVMLFGLGCLW | 0.6321 ± 0.00042
CGVSRIGLAGDV | 0.671 ± 0.039
CGWIQYSVSHDL | 0.712 ± 0.059
CHNVIEKIRNNK | 0.657 ± 0.1
CHPFGLPFMLEF | 0.721 ± 0.026
CHSIEGSEPREA | 0.694 ± 0.085
CIATINKMTRRI | 0.67 ± 0.11
CIRSRHRRQSKG | 0.67 ± 0.088
CISPPRHAPPPP | 0.637 ± 0.092
CKCKLNKKTTKS | 0.701 ± 0.05
CKEGLGSGRWGR | 0.717 ± 0.018
CKKGVEIIEREK | 0.632 ± 0.026
CLCLTCMLDFYL | 0.553 ± 0.0092
CLEEVVCRVRGA | 0.643 ± 0.0096
CLFPVSLPCPTN | 0.714 ± 0.018
CLGPTVYGRSTF | 0.728 ± 0.025
CLICLRSRMGDC | 0.642 ± 0.024
CLIGYFPYRLVL | 0.502 ± 0.025
CLLCLPPPRSLS | 0.69 ± 0.034
CLPLFISPFLLG | 0.677 ± 0.0068
CLPPPARLPAPR | 0.683 ± 0.033
CLSGLIIMPSVG | 0.675 ± 0.035
CLSPSSHLPSVT | 0.685 ± 0.021
CLTGSVLVICGN | 0.551 ± 0.06

Sequence | protein stability index
CLVDSSSFSLIF | 0.742 ± 0.065
CLVGWAVAVLGD | 0.458 ± 0.068
CLVIDDPFLVPF | 0.6988 ± 0.001
CLVRIIRREIKG | 0.575 ± 0.018
CMCFFMGGWWCV | 0.608 ± 0.0067
CMFPVSHRLLYL | 0.615 ± 0.047
CMGRCGVCCERS | 0.711 ± 0.045
CMWDAVGFALRS | 0.72 ± 0.011
CPGNRQEMLKSR | 0.676 ± 0.0083
CPLPTAFRSTHV | 0.691 ± 0.019
CPRLDVSSGFSW | 0.694 ± 0.025
CPTVLWPRSPRN | 0.688 ± 0.027
CQPNRKRETRGN | 0.732 ± 0.064
CQSARCLPFLLY | 0.585 ± 0.026
CQVTDYLVLDWG | 0.727 ± 0.038
CQYKRRLKTTET | 0.732 ± 0.0085
CRGPRASRRRGR | 0.629 ± 0.04
CRHPYTSTTRLA | 0.68 ± 0.025
CRKLSIPLRGQS | 0.6627 ± 0.0044
CRQCKGTDGDDQ | 0.673 ± 0.04
CRSGERSHKMLL | 0.63 ± 0.011
CRSRRIVGPDSR | 0.669 ± 0.015
CSAALTTLLDFA | 0.715 ± 0.018
CSAVVPASARTP | 0.606 ± 0.019
CSDRCHNLLLDA | 0.705 ± 0.059

Sequence | protein stability index
CSFFNSFPVFWL | 0.7 ± 0.014
CSGRDLSLSMAD | 0.744 ± 0.13
CSHPHPSSNLPS | 0.683 ± 0.045
CSKERAPGPSSG | 0.705 ± 0.075
CSLRVSADPLLT | 0.7315 ± 0.0071
CSNGRKFKKDDA | 0.682 ± 0.059
CSPLIISDATSR | 0.713 ± 0.082
CSRGRNSDNNLI | 0.631 ± 0.043
CSSLPSRPLLPH | 0.7209 ± 0.0062
CSSSALADLLPW | 0.6537 ± 0.0022
CSSSLLDSPPAL | 0.703 ± 0.048
CSTYPLFPTLPP | 0.693 ± 0.049
CTFSGLLEMAGR | 0.7253 ± 0.0024
CTGSRPPPDCAV | 0.646 ± 0.019
CTHCAGVLLHTL | 0.636 ± 0.044
CTKKNGYNGKNT | 0.652 ± 0.025
CVARRPSLIGRN | 0.655 ± 0.027
CVCLGCGGAFAG | 0.696 ± 0.019
CVFAPLFYNVYA | 0.585 ± 0.019
CVGILGAVKSGM | 0.71 ± 0.098
CVIIDFTLCSVI | 0.682 ± 0.14
CVLVVGGPAGGG | 0.575 ± 0.063
CVMDKEYGYAIK | 0.729 ± 0.0094
CVPFFSSSSPLI | 0.812 ± 0.037
CVPLGCDWRGLI | 0.6418 ± 0.0058

Sequence | protein stability index
CVQGDGLSFYVL | 0.737 ± 0.07
CVSALVADDLVS | 0.674 ± 0.029
CVWSGHIWDLLF | 0.764 ± 0.016
CYGVGTVGLRRG | 0.712 ± 0.048
CYGYTESKNRLD | 0.6524 ± 0.0046
CYKKRKKTNNYE | 0.653 ± 0.02
CYLGSGFLFFLL | 0.5209 ± 0.00091
CYRLFPLSSFIP | 0.689 ± 0.085
DAKPNMATGLSI | 0.703 ± 0.027
DAWPPVRTVVIN | 0.656 ± 0.071
DCAVNYVGRRRR | 0.702 ± 0.057
DDGQWVGFCGWT | 0.749 ± 0.039
DDQLACSHDIDS | 0.643 ± 0.019
DDQYVGRYYNKT | 0.676 ± 0.019
DEANFHGCYYGV | 0.647 ± 0.041
DESRVYLSIALL | 0.623 ± 0.035
DFLSLPPISPLL | 0.787 ± 0.15
DFYSLAWHFWFL | 0.69 ± 0.073
DGCGFIGLSLLE | 0.731 ± 0.079
DGCSWRSGLVWL | 0.69506 ± 0.00062
DGELFPDEPFYL | 0.801 ± 0.049
DGGVGRALEHGE | 0.652 ± 0.0083
DGLQNACVFMSG | 0.6906 ± 0.0025
DGPALWPRSVVD | 0.684 ± 0.1
DGQNPVAFGSHG | 0.691 ± 0.057

Sequence | protein stability index
DGVRCCTKWTCA | 0.679 ± 0.013
DGWSEAGQGGKG | 0.679 ± 0.034
DHKKNKIKKKKE | 0.685 ± 0.097
DHLVLSGPPPPV | 0.733 ± 0.056
DHRELPRSRIGT | 0.673 ± 0.015
DICFTPGVVNAS | 0.6587 ± 0.0038
DIEKRNKRGVCV | 0.714 ± 0.058
DIKAISVKYTIQ | 0.6127 ± 0.0056
DILACAPCRRGP | 0.704 ± 0.022
DKGWRTRKVKDE | 0.632 ± 0.03
DKPRKVLPNENS | 0.6871 ± 0.0017
DKRRSMSGGNMD | 0.68 ± 0.024
DKSYKTYSVKGQ | 0.6707 ± 0.0018
DLARSLVQSLSG | 0.675 ± 0.017
DLEDPAETPNIF | 0.72 ± 0.033
DLGWGRWYVVVG | 0.678 ± 0.0083
DLHFAVVFPISR | 0.733 ± 0.013
DLKIKKNDKKKK | 0.658 ± 0.0086
DLLPGAGRDSRL | 0.775 ± 0.21
DLSRSPAPPAPL | 0.6706 ± 0.0014
DLVQFATEILMI | 0.612 ± 0.0064
DLVSVVGRGIVL | 0.675 ± 0.026
DLYVADNCPNSP | 0.662 ± 0.1
DMAPNSQKGRAL | 0.668 ± 0.028
DPAIHPNYKVAG | 0.701 ± 0.053

Sequence | protein stability index
DPHINARERTPL | 0.814 ± 0.2
DPPHPPPSPLPA | 0.699 ± 0.02
DPRVLPPPPRLP | 0.637 ± 0.02
DPTPLKSLVTRP | 0.64 ± 0.04
DPTVIKNQTWFG | 0.722 ± 0.05
DQGMSDVYPDCW | 0.662 ± 0.011
DQSYPTPPSRID | 0.721 ± 0.01
DQTKMKKIAKVE | 0.655 ± 0.044
DRASLAGPRSLP | 0.692 ± 0.032
DRNKINYYKGGI | 0.694 ± 0.031
DRPSTNPISNVG | 0.699 ± 0.015
DRPYTEILEFRL | 0.834 ± 0.14
DRTITPSSVISL | 0.705 ± 0.047
DRVGGDWMERGG | 0.719 ± 0.036
DRVLRGAIWVSV | 0.571 ± 0.045
DSFAIFFDWPAC | 0.695 ± 0.0092
DSFPAGVLVQSK | 0.664 ± 0.017
DSGVGLARSARG | 0.678 ± 0.018
DSHEEGVSVAPA | 0.749 ± 0.034
DSSPGSHPPHRG | 0.736 ± 0.053
DSSPSPYPRPPP | 0.729 ± 0.054
DSVGGVLGRGAR | 0.633 ± 0.022
DSVYYVYRSTRV | 0.679 ± 0.044
DSWMKRPNKGQE | 0.698 ± 0.058
DSYELGICCSSS | 0.6678 ± 0.0019

Sequence | protein stability index
DTPIGMPLNVTR | 0.691 ± 0.061
DVFCRPRCFRRG | 0.686 ± 0.041
DVGGRGAGGGSA | 0.672 ± 0.0076
DVHGETRGYGIQ | 0.665 ± 0.019
DVLFFSALKAHR | 0.6881 ± 0.003
DVLGCHRCLGFC | 0.699 ± 0.021
DVNSNYNVGEQR | 0.64 ± 0.012
DVRTLGTRVMGW | 0.6769 ± 0.0057
DVVDGCGGRYGW | 0.687 ± 0.029
DVVLFQLGSELV | 0.712 ± 0.013
DVYMWVVPNFTD | 0.729 ± 0.037
DWAGGKMESVYR | 0.66 ± 0.011
DYHPPRRMKEAG | 0.625 ± 0.028
DYHWPFIRTATE | 0.774 ± 0.027
EAHGQQESRCEQ | 0.7 ± 0.055
EATCSPCPTRVV | 0.621 ± 0.012
EATIVGLSYRTL | 0.617 ± 0.032
ECGLRAAKPVWI | 0.702 ± 0.063
ECPLPPCPPLST | 0.68 ± 0.0098
ECVRWFKNTDRL | 0.721 ± 0.032
EDLVREKRKCEK | 0.694 ± 0.043
